In article PMC5321513 (Structure (London, England : 1993), 2017):
[ ]: non-standard residue; d: D form. pS = N[C@@H](COP(=O)(O)O)C(=O)O

Legend:
14-3-3σ WT (1-231) = target: T1, 14-3-3σ WT (1-231) (human, UniProt P31947 1-231); experiment: other fluorescence titration
T1 sequence: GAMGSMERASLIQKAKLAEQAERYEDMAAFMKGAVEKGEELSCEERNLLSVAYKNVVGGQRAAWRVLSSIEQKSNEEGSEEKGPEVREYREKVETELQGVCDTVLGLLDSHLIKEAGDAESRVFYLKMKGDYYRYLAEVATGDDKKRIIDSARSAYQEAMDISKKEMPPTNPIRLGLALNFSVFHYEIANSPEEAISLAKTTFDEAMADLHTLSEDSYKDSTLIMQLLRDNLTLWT

14-3-3σ Clu3 (1-231) = target: T2, 14-3-3σ Clu3 (1-231) (human, UniProt P31947 1-231, 75EEK77 → AAA); experiment: crystal structure
T2 sequence: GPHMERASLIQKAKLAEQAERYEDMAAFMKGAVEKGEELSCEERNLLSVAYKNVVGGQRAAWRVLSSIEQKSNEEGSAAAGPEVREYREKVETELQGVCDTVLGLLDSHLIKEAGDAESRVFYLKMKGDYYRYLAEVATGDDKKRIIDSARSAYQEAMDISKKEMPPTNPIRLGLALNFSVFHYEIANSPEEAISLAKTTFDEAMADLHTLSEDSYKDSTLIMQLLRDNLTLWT

B1: AEDANS-labeled phosphorylated full-length HSPB6 (natural protein, human, UniProt O14558 1-160, looked up)
chain: MEIPVPVQPSWLRRASAPLPGLSAPGRLFDQRFGEGLLEAELAALCPTTLAPYYLRAPSVALPVAQVPTDPGHFSVLLDVKHFSPEEIAVKVVGEHVEVHARHEERPDEHGFVAREFHRRYRLPPGVDPAAVTSALSPEGVLSIQAAPASAQAPPPAAAK
modifications: phosphoserine at 16; 1,5-I-AEDANS moiety on Cys46 (extent of labeling 90%)
Kd (14-3-3σ WT (1-231)): 560 ± 200 nM

B2: pHSPB6(13-20) phosphopeptide (peptide, UniProt O14558 13-20, looked up)
peptide: H-RRA[pS]APLP-OH
SMILES: CC(C)C[C@H](NC(=O)[C@@H]1CCCN1C(=O)[C@H](C)NC(=O)[C@H](COP(=O)(O)O)NC(=O)[C@H](C)NC(=O)[C@H](CCCNC(=N)N)NC(=O)[C@@H](N)CCCNC(=N)N)C(=O)N1CCC[C@H]1C(=O)O
binding result (14-3-3σ Clu3 (1-231)): binds
